In patent US20170320919A1:
Substitutions are numbered along the chain they refer to. Numbers in names are those of the source.

B1: Domain 1 (D1) (protein)
chain: AQVSEEEVTIKANLIFANGSTQTAEFKGTFEKATSEAYAYADTLKKDNGEYTVDVADKGYTLNIKFAGKEKTPEEC
B2: Domain 4 (D4) (protein)
chain: AQVPKEEVTIKANLIYADGKTQTAEFKGTFAEATAEAYRYADLLAKENGKYTADLEDGGYTINIRFAGKKVDEKPEEC
B3: D3(N45A)1 (designed binder)
chain: PKEEVTIKANLIYADGKTQTAEFKGTFEEATAEAYRYADLLAKEAGKYTVDVADKGYTLNIKFAGKEKTPEE
B4: D3(N10Q, N45A)1 (designed binder)
chain: B3 chain with N10Q
B5: D3(N10Q, N45A, N60Q)1 (designed binder)
chain: B3 chain with N10Q, N60Q
B6: D3(N45A, N60Q)1 (designed binder)
chain: B3 chain with N60Q
B7: D3(Q19E)1 (designed binder)
chain: B3 chain with Q19E, A45N
B8: D3(Q19A)1 (designed binder)
chain: B3 chain with Q19A, A45N
B9: Domain 3 tetramer (designed binder)
chain: PKEEVTIKANLIYADGKTQTAEFKGTFEEATAEAYRYADLLAKENGKYTVDVADKGYTLNIKFAGKEKTPEEPKEEVTIKANLIYADGKTQTAEFKGTFEEATAEAYRYADLLAKENGKYTVDVADKGYTLNIKFAGKEKTPEEPKEEVTIKANLIYADGKTQTAEFKGTFEEATAEAYRYADLLAKENGKYTVDVADKGYTLNIKFAGKEKTPEEPKEEVTIKANLIYADGKTQTAEFKGTFEEATAEAYRYADLLAKENGKYTVDVADKGYTLNIKFAGKEKTPEE
B10: Domain 3 (D3) (protein)
chain: AQVPKEEVTIKANLIYADGKTQTAEFKGTFEEATAEAYRYADLLAKENGKYTVDVADKGYTLNIKFAGKEKTPEEC
B11: Domain 2 (D2) (protein)
chain: B10 chain with T34A, L43A, A45K, E47D, K50E
B12: Protein L (protein)
chain: AIHNRAKEETPETPETDSEEEVTIKANLIFANGSTQTAEFKGTFEKATSEAYAYADTLKKDNGEYTVDVADKGYTLNIKFAGKEKTPEEPKEEVTIKANLIYADGKTQTAEFKGTFEEATAEAYRYADALKKDNGEYTVDVADKGYTLNIKFAGKEKTPEEPKEEVTIKANLIYADGKTQTAEFKGTFEEATAEAYRYADLLAKENGKYTVDVADKGYTLNIKFAGKEKTPEEPKEEVTIKANLIYADGKTQTAEFKGTFAEATAEAYRYADLLAKENGKYTADLEDGGYTINIRFAGKKVDEKPEE
B13: D3(N10Q, N45A, N60Q)6 (designed binder)
chain: PKEEVTIKAQLIYADGKTQTAEFKGTFEEATAEAYRYADLLAKEAGKYTVDVADKGYTLQIKFAGKEKTPEEPKEEVTIKAQLIYADGKTQTAEFKGTFEEATAEAYRYADLLAKEAGKYTVDVADKGYTLQIKFAGKEKTPEEPKEEVTIKAQLIYADGKTQTAEFKGTFEEATAEAYRYADLLAKEAGKYTVDVADKGYTLQIKFAGKEKTPEEPKEEVTIKAQLIYADGKTQTAEFKGTFEEATAEAYRYADLLAKEAGKYTVDVADKGYTLQIKFAGKEKTPEEPKEEVTIKAQLIYADGKTQTAEFKGTFEEATAEAYRYADLLAKEAGKYTVDVADKGYTLQIKFAGKEKTPEEPKEEVTIKAQLIYADGKTQTAEFKGTFEEATAEAYRYADLLAKEAGKYTVDVADKGYTLQIKFAGKEKTPEE
B14: D3(N10Q, N45A, N60Q)2-cys (designed binder)
chain: PKEEVTIKAQLIYADGKTQTAEFKGTFEEATAEAYRYADLLAKEAGKYTVDVADKGYTLQIKFAGKEKTPEEPKEEVTIKAQLIYADGKTQTAEFKGTFEEATAEAYRYADLLAKEAGKYTVDVADKGYTLQIKFAGKEKTPEEC
B15: D3(N10Q, N45A, N60Q)4 (designed binder)
chain: PKEEVTIKAQLIYADGKTQTAEFKGTFEEATAEAYRYADLLAKEAGKYTVDVADKGYTLQIKFAGKEKTPEEPKEEVTIKAQLIYADGKTQTAEFKGTFEEATAEAYRYADLLAKEAGKYTVDVADKGYTLQIKFAGKEKTPEEPKEEVTIKAQLIYADGKTQTAEFKGTFEEATAEAYRYADLLAKEAGKYTVDVADKGYTLQIKFAGKEKTPEEPKEEVTIKAQLIYADGKTQTAEFKGTFEEATAEAYRYADLLAKEAGKYTVDVADKGYTLQIKFAGKEKTPEE
B16: D3(N10Q, N45A, N60Q)6-cys (designed binder)
chain: PKEEVTIKAQLIYADGKTQTAEFKGTFEEATAEAYRYADLLAKEAGKYTVDVADKGYTLQIKFAGKEKTPEEPKEEVTIKAQLIYADGKTQTAEFKGTFEEATAEAYRYADLLAKEAGKYTVDVADKGYTLQIKFAGKEKTPEEPKEEVTIKAQLIYADGKTQTAEFKGTFEEATAEAYRYADLLAKEAGKYTVDVADKGYTLQIKFAGKEKTPEEPKEEVTIKAQLIYADGKTQTAEFKGTFEEATAEAYRYADLLAKEAGKYTVDVADKGYTLQIKFAGKEKTPEEPKEEVTIKAQLIYADGKTQTAEFKGTFEEATAEAYRYADLLAKEAGKYTVDVADKGYTLQIKFAGKEKTPEEPKEEVTIKAQLIYADGKTQTAEFKGTFEEATAEAYRYADLLAKEAGKYTVDVADKGYTLQIKFAGKEKTPEEC
B17: D3(N10Q, N45A, N60Q)4-cys (designed binder)
chain: PKEEVTIKAQLIYADGKTQTAEFKGTFEEATAEAYRYADLLAKEAGKYTVDVADKGYTLQIKFAGKEKTPEEPKEEVTIKAQLIYADGKTQTAEFKGTFEEATAEAYRYADLLAKEAGKYTVDVADKGYTLQIKFAGKEKTPEEPKEEVTIKAQLIYADGKTQTAEFKGTFEEATAEAYRYADLLAKEAGKYTVDVADKGYTLQIKFAGKEKTPEEPKEEVTIKAQLIYADGKTQTAEFKGTFEEATAEAYRYADLLAKEAGKYTVDVADKGYTLQIKFAGKEKTPEEC
B18: D3(N10Q, N45A, N60Q)2 (designed binder)
chain: PKEEVTIKAQLIYADGKTQTAEFKGTFEEATAEAYRYADLLAKEAGKYTVDVADKGYTLQIKFAGKEKTPEEPKEEVTIKAQLIYADGKTQTAEFKGTFEEATAEAYRYADLLAKEAGKYTVDVADKGYTLQIKFAGKEKTPEE

Target: human polyclonal IgG (Gammanorm) (human)
Assay: SPR (Biacore), ligand amine-coupled to CM5 chip, 1 mg/ml IgG flowed; IgG binding signal left after 96 cycles of 100 mM NaOH, 10 min

Retained capacity after 96 cycles (%)	Binder
13%	B1
26%	B2
44%	B3
48%	B4
59%	B5
59%	B6
31%	B7
28%	B8
38%	B9
31%	B10
22%	B11
28%	B12

Target: human polyclonal IgG (Gammanorm) (human)
Assay: SPR (Biacore), retained IgG binding capacity after 100 NaOH cycles against reference Protein L

Sample/ref. ratio	Binder
2.52	B13
2.56	B14
2.61	B15
2.43	B16
2.35	B17
1	B12
2.56	B18

Target: human polyclonal IgG (Gammanorm) (human)
Assay: SPR (Biacore), retained IgG binding capacity after 96 NaOH cycles against reference Domain 3

Sample/ref. ratio	Binder
0.42	B1
0.84	B2
1.42	B3
1.55	B4
1.9	B5
1.9	B6
1	B10
0.71	B11

Target: human polyclonal IgG (Gammanorm) (human)
Assay: SPR (Biacore), ligand amine-coupled to CM5 chip, 1 mg/ml IgG flowed; IgG binding signal left after 96 cycles of 100 mM NaOH, 10 min (second series, with the Q19 mutants)

Retained capacity after 96 cycles (%)	Binder
28%	B10

Target: human polyclonal IgG (Gammanorm) (human)
Assay: SPR (Biacore), ligand amine-coupled to CM5 chip, 1 mg/ml IgG flowed; IgG binding signal left after 100 cycles of 100 mM NaOH, 10 min

Retained capacity after 100 cycles (%)	Binder
58%	B13
59%	B14
60%	B15
56%	B16
54%	B17
23%	B12
59%	B18

Target: Purified Dab prepared from heat-treated E. coli supernatant
Assay: column chromatography, ligand coupled to agarose beads at 9.5 mg/ml, 1 mg/ml Dab feed, residence time 4 min

QB10 Dab (dynamic binding capacity at 10% breakthrough)	Binder
15.4 mg/mL	B18

Target: Purified Fab prepared from a papain-digested IgG mAb
Assay: column chromatography, ligand coupled to agarose beads at 8.8 mg/ml, 1 mg/ml Fab feed, residence time 4 min

QB10 Fab (dynamic binding capacity at 10% breakthrough)	Binder
19.3 mg/mL	B15

Target: Purified Fab prepared from a papain-digested IgG mAb
Assay: column chromatography, ligand coupled to agarose beads at 9.5 mg/ml, 1 mg/ml Fab feed, residence time 4 min

QB10 Fab (dynamic binding capacity at 10% breakthrough)	Binder
19.3 mg/mL	B18

Target: human polyclonal IgG (Gammanorm) (human)
Assay: SPR (Biacore), retained IgG binding capacity after 96 NaOH cycles against reference Protein L

Sample/ref. ratio	Binder
1.36	B9
1	B12

Target: Purified Dab prepared from heat-treated E. coli supernatant
Assay: column chromatography, ligand coupled to agarose beads at 11.0 mg/ml, 1 mg/ml Dab feed, residence time 4 min

QB10 Dab (dynamic binding capacity at 10% breakthrough)	Binder
16.7 mg/mL	B13

Target: human polyclonal IgG (Gammanorm) (human)
Assay: SPR (Biacore), retained IgG binding capacity after 96 NaOH cycles against reference Domain 3 (second series)

Sample/ref. ratio	Binder
1.11	B7
1	B8
1	B10

Target: Purified Fab prepared from a papain-digested IgG mAb
Assay: column chromatography, ligand coupled to agarose beads at 11.0 mg/ml, 1 mg/ml Fab feed, residence time 4 min

QB10 Fab (dynamic binding capacity at 10% breakthrough)	Binder
21.1 mg/mL	B13

Target: Purified Dab prepared from heat-treated E. coli supernatant
Assay: column chromatography, ligand coupled to agarose beads at 8.8 mg/ml, 1 mg/ml Dab feed, residence time 4 min

QB10 Dab (dynamic binding capacity at 10% breakthrough)	Binder
15.9 mg/mL	B15
